In the supplement of paper PMC10567573 one finds protein stability index data, which are given here for 97 variants.

B1: ELF3 (parent)
chain: RLVYKFGKNSSGWKEEEVLQSRN
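Further: lentivirally expressed fusions sorted by FACS into six bins by GFP to DsRed ratio, PSI derived from sequencing read proportions per bin multiplied by bin number.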

The variants in this data set derive from B1. Description: protein stability index of a GFP-peptide fusion (GPS, HEK-293T) (PSI 1-6); higher = more stable. To be noted: c terminus: native.
For RLVYKFGKNSSGWTEEEVLQSRN [K14T], the protein stability index worked out at 2.32. The value for RLVYKFGKNSSGWHEEEVLQSRN [K14H] was 1.41; that for RLVYKFGKNSSGWQEEEVLQSRN [K14Q] was 3. The value for RLVYKFGKNSSGWNEEEVLQSRN [K14N] was 1.92; that for RLVYKFGKNSSGWCEEEVLQSRN [K14C] was 2.12; that for RLVYKFGKNSSGWREEEVLQSRN [K14R] was 2.43. The same measure for RLVYKFGKNSSGWEEEEVLQSRN [K14E]: 3.31.

On to RLVYKFGKNSSGWFEEEVLQSRN [K14F], for which the protein stability index came to 2.49. The value for RLVYKFGKNSSGWSEEEVLQSRN [K14S] was 2.89. RLVYKFGKNSSGWYEEEVLQSRN [K14Y]: the protein stability index came to 2.28. The value for RLVYKFGKNSSGWMEEEVLQSRN [K14M] was 2.88; that for RLVYKFGKNSSGWPEEEVLQSRN [K14P] was 2.58. The same measure for RLVYKFGKNSSGWLEEEVLQSRN [K14L]: 2.7. The value for RLVYKFGKNSSGWIEEEVLQSRN [K14I] was 2.25. Regarding RLVYKFGKNSSGWDEEEVLQSRN [K14D], the protein stability index came out at 3.25.

In the case of RLVYKFGKNSSGWVEEEVLQSRN [K14V], the protein stability index is 2.25. RLVYKFGKNSSGWAEEEVLQSRN [K14A]: the protein stability index amounted to 2.02. The value for RLVYKFGKMSSGWKEEEVLQSRN [N9M] was 4.34; that for RLVYKFGKHSSGWKEEEVLQSRN [N9H] was 1.68. As for RLVYKFGKVSSGWKEEEVLQSRN [N9V], the protein stability index stood at 2.08.

Turning to RLVYKFGKPSSGWKEEEVLQSRN [N9P], the protein stability index is 2.33. The same measure for RLVYKFGKGSSGWKEEEVLQSRN [N9G]: 1.9; for RLVYKFGKQSSGWKEEEVLQSRN [N9Q]: 1.87; for RLVYKFGKSSSGWKEEEVLQSRN [N9S]: 2.22. The same measure for RLVYKFGKLSSGWKEEEVLQSRN [N9L]: 2.59. The same measure for RLVYKFGKTSSGWKEEEVLQSRN [N9T]: 1.73; for RLVYKFGKRSSGWKEEEVLQSRN [N9R]: 2.91; for RLVYKFGKYSSGWKEEEVLQSRN [N9Y]: 1.25.

RLVYKFGKKSSGWKEEEVLQSRN [N9K]: the protein stability index was 1.97. The value for RLVYKFGKFSSGWKEEEVLQSRN [N9F] was 1.98. The same measure for RLVYKFGKNSSGWKEEEVLQERN [S21E]: 3.19; for RLVYKFGKNSSGWKEEEVLQDRN [S21D]: 3.56; for RLVYKFGKNSSGWKEEEVLQCRN [S21C]: 2.39. In the case of RLVYKFGKNSSGWKEEEVLQARN [S21A], the protein stability index was found to be 2.12. As to RLVYKFGKNSSGWKEEAVLQSRN [E17A], the protein stability index amounted to 2.06. On to RLVYKFGKNSSGWKEESVLQSRN [E17S], for which the protein stability index was determined as 1.13.

Regarding RLVYKFGKNSSGWKEEFVLQSRN [E17F], the protein stability index was found to be 1.75. In the case of RLVYKFGKNSSGWKEENVLQSRN [E17N], the protein stability index came to 1.6. On to RLVYKFGKNSSGWKEEKVLQSRN [E17K], for which the protein stability index stood at 1.3.

In the case of RLVYKFGKNSSGWKEEDVLQSRN [E17D], the protein stability index came to 1.75.

Regarding RLVYKFGKNSSGWKEEMVLQSRN [E17M], the protein stability index was determined as 2.27. Take RLVYKFGKNSSGWKEETVLQSRN [E17T]: the protein stability index came out at 1.51. The same measure for RLVYKFGKNSSGWKEEQVLQSRN [E17Q]: 2.09; for RLVYKFGKNSSGWKEECVLQSRN [E17C]: 2.62. The value for RLVYKFGKNSSGWKEEYVLQSRN [E17Y] was 2.98; that for RLVYKFGKNSSGWKEEPVLQSRN [E17P] was 2.22. Regarding RLVYKFGKNSSGWKEEGVLQSRN [E17G], the protein stability index is 1.93. For the variant RLVYKFGKNSSGWKEEIVLQSRN [E17I], the protein stability index is 2.02.

With RLVYKFGKNSSGWKEEVVLQSRN [E17V], the protein stability index turned out to be 1.98. The value for RLVYKFGKNSSGWKEEHVLQSRN [E17H] was 1.11; that for RLVYKFGKNSSVWKEEEVLQSRN [G12V] was 1.79; that for RLVYKFGKNSSDWKEEEVLQSRN [G12D] was 3.19.

RLVYKFGKNSSAWKEEEVLQSRN [G12A]: the protein stability index was determined as 2.37.

Turning to RLVYKFGKNSSFWKEEEVLQSRN [G12F], the protein stability index was 1.82. As to RLVYKFGKNSSPWKEEEVLQSRN [G12P], the protein stability index was 2.46. The value for RLVYKFGKNSSQWKEEEVLQSRN [G12Q] was 1.95; that for RLVYKFGKNSSEWKEEEVLQSRN [G12E] was 2.98; that for RLVYKFGKNSSIWKEEEVLQSRN [G12I] was 1.76.

As to RLVYKFGKNSSKWKEEEVLQSRN [G12K], the protein stability index was found to be 1.69. The value for RLVYKFGKNSSWWKEEEVLQSRN [G12W] was 1.88; that for RLVYKFGKNSSNWKEEEVLQSRN [G12N] was 1.98. Turning to RLVYKFGKNSSCWKEEEVLQSRN [G12C], the protein stability index came out at 2.05. The value for RLVYKFGKNSSLWKEEEVLQSRN [G12L] was 3.23; that for RLVYKFGKNSSYWKEEEVLQSRN [G12Y] was 2.57. The value for RLVYKFGKNSSTWKEEEVLQSRN [G12T] was 1.87; that for RLVYKFGKNSSSWKEEEVLQSRN [G12S] was 2.5; that for RLVYKFGKNSSHWKEEEVLQSRN [G12H] was 2.02. As to RLVYKFGKNSSGWKEEEYLQSRN [V18Y], the protein stability index amounted to 1.25.

Consider RLVYKFGKNSSGWKEEERLQSRN [V18R], for which the protein stability index turned out to be 2.29. As for RLVYKFGKNSSGWKEEEHLQSRN [V18H], the protein stability index was determined as 3.01. RLVYKFGKNSSGWKEEEKLQSRN [V18K]: the protein stability index was found to be 2.94. The same measure for RLVYKFGKNSSGWKEEEILQSRN [V18I]: 2.32. The value for RLVYKFGKNSSGWKEEEDLQSRN [V18D] was 3.45; that for RLVYKFGKNSSGWKEEEWLQSRN [V18W] was 1.62. The same measure for RLVYKFGKNSSGWKEEEELQSRN [V18E]: 3.17. As for RLVYKFGKNSSGWKEEEQLQSRN [V18Q], the protein stability index turned out to be 2.35. The same measure for RLVYKFGKNSSGWKEEETLQSRN [V18T]: 2.16; for RLVYKFGKNSSGWKEEENLQSRN [V18N]: 2.59; for RLVYKFGKNSSGWKEEEALQSRN [V18A]: 2.49. The value for RLVYKFGKNSSGWKEEEFLQSRN [V18F] was 1.73; that for RLVYKFGKNSSGWKEEEGLQSRN [V18G] was 2.9.

Consider RLVYKFGKNSSGWKEEECLQSRN [V18C], for which the protein stability index worked out at 2.44. The same measure for RLVYKFGKNSSGWKEEEMLQSRN [V18M]: 1.84; for RLVYKFGKNSSGWKEEELLQSRN [V18L]: 2.08; for RLVYKFGKNSSGWKEEESLQSRN [V18S]: 2.68. The same measure for RLVYKFGKNSSGWKEEEPLQSRN [V18P]: 2.81; for RLVYKFGKNSSGWKEEEVAQSRN [L19A]: 3.3; for RLVYKFGKNSSGWKEEEVEQSRN [L19E]: 4.05. The same measure for RLVYKFGKNSSGWKEEEVHQSRN [L19H]: 2.98; for RLVYKFGKNSSGWKEEEVQQSRN [L19Q]: 3.85. Consider RLVYKFGKNSSGWKEEEVGQSRN [L19G], for which the protein stability index is 3.19. The value for RLVYKFGKNSSGWKEEEVNQSRN [L19N] was 3.65; that for RLVYKFGKNSSGWKEEEVPQSRN [L19P] was 3.12; that for RLVYKFGKNSSGWKEEEVTQSRN [L19T] was 3.84. The value for RLVYKFGKNSSGWKEEEVRQSRN [L19R] was 2.51; that for RLVYKFGKNSSGWKEEEVMQSRN [L19M] was 2.43. The value for RLVYKFGKNSSGWKEEEVIQSRN [L19I] was 2.67.
